Measurements: patent publication US20030124108A1

Biological target: purified PLD1 (isoform not distinguished in Example 4) (human)
Experiment: cell-based or functional assay

human ADP-ribosylation factor 1 (ARF1) (from UniProt P84077 2-181)
activation of PLD1 at a maximally effective concentration (ARF1 4.7 M as printed): 49 fold
half-maximal activation of PLD1 activity (headgroup release assay): 0.2 M
stimulation of PLD1 activity: 50 fold

human RhoA with … at the amino terminus (from UniProt P61586 1-190)
activation of PLD1 at a maximally effective concentration (RhoA 3.8 M as printed): 13 fold
half-maximal activation of PLD1 activity (headgroup release assay): 1 M
stimulation of PLD1 activity: 10 fold

human cdc42 with … at the amino terminus (from UniProt P60953 1-188)
activation of PLD1 at a maximally effective concentration (cdc42 5.5 M as printed): 10 fold
half-maximal activation of PLD1 activity (headgroup release assay): 1 M
stimulation of PLD1 activity: 5 fold

human protein kinase C- (isoform letter lost in print) (from UniProt P17252 2-672) (enzyme)
activation of PLD1 at a maximally effective concentration (PMA-activated PKC- 0.043 M as printed): 28 fold
